# Experiments:
# [1] = molecular target: T1, endogenous human CD45 at the cell surface (Homo sapiens, UniProt P08575-4); assay: flow cytometry on cells; nanobodies incubated with Expi293F, NK92 or YTS cells; detected with anti-VHH-Alexa Fluor 647; details: one partner purified
# T1 construct: CD45, human, endogenous; also called CD45RO; source: endogenous, on YTS and NK92 cells and on primary human CD8+ T cells
# [2] = molecular target: T2, CD45d1d2 (d1 and d2 domains of human CD45 linked to an AviTag) (Homo sapiens, biotin (site-specific, on the AviTag); N-linked glycosylation); assay: ELISA; nanobodies coated on a plate, incubated with the indicated concentrations of biotinylated CD45d1d2; colorimetric detection (absorbance at 450 nm); details: both partners purified
# T2 construct: CD45, human, extracellular domains d1 and d2; Construct limits may stand in the Supporting Information; also called biotinylated human CD45 domains 1 and 2; source: Expi293F cells, purified
# T2 chain: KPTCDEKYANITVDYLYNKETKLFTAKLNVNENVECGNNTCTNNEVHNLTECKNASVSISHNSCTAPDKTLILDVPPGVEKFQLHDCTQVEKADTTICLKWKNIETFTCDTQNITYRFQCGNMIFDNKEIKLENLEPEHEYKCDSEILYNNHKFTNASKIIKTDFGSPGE
# T1 sequence (P08575 other isoform, or with tags, fused parts or gaps): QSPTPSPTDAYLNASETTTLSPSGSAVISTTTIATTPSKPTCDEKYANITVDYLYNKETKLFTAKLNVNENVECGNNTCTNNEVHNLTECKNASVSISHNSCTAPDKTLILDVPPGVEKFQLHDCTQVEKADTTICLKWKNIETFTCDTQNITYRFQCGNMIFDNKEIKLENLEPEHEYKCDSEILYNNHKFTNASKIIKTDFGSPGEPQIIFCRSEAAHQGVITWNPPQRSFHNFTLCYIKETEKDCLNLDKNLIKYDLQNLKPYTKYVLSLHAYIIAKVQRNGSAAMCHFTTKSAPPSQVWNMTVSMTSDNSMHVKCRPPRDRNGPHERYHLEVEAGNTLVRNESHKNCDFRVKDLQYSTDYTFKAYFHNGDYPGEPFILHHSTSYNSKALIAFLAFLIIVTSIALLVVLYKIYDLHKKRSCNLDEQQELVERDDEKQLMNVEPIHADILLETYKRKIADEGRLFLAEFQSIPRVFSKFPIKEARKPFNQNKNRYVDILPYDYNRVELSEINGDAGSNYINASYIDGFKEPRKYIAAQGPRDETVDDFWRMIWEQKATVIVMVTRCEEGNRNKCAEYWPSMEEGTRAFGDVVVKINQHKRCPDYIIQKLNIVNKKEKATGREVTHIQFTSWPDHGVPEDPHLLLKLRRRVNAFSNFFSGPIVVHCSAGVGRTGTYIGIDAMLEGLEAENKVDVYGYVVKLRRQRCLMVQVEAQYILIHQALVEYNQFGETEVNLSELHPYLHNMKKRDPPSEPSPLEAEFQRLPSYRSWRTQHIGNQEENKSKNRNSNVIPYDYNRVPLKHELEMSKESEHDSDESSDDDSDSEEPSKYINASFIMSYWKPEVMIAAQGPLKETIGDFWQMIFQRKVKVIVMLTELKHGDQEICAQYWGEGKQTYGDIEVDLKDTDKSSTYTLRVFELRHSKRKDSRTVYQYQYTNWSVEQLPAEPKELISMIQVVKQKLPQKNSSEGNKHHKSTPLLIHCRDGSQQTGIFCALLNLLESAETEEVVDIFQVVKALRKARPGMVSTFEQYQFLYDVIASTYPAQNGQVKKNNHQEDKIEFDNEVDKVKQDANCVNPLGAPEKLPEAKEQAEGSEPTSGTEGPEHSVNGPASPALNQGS
binder,measurement,setting,value
"anti-CD45 nanobody 2H5 (VHH, VHH 2H5 against the d1d2 region of human CD45, from llama immunization; the source of the nanobodies is a cited earlier work) VHH: QVQLQESGGGLVQTGGSLTLSCVASGGTFSSYAMGWFRQAPGKEREFVAAIGGSGDSTYYADSVKGRFTISRDNAKNSVYLQMNSLKPEDTAVYYCQADPTMFHKLYYGINPNEYDYWGQGTLVTVSS",binding result,[1],binds
same,binding result,[2],binds

# Source: article PMC12921663, “NanoBondy Reaction through NeissLock Anhydride Allows Covalent Immune Cell Decoration” (Bioconjugate Chemistry, 2026)
